{
  "source": "patent US20250215467A1",
  "about": "“L-THREONINE TRANSALDOLASES AND USES THEREOF” (University of Delaware, priority 2022, published 2025)",
  "molecules": {"B1": {"name": "PbTTA: L-threonine transaldolase, SEQ ID NO: 16, Parachlamydiales bacterium, MBN2478762.1 (protein, listed as Parachlamydiales bacterium)", "chain": "METSLKDFETILHLINKEEIDSNDTIHMTANENIMSKLSKHYLKSTLSYRYHVGMFDDQKNLTVSRSCLIKNSLMLRCLSPIFLLEQQAREYVKKMFFAEYADFRPLSGMHTVFCILSTLTKPNDRVYVFTTESVGHAATVSLLKSLGRKVSFIPFCEKKLDIDLEKLSKQILIEKPNAILFDFGTPFYPLPIREIREIVGNDVKMIYDASHVLGLIAGGQFQNPLLEGCDVLIGNTHKTFPGPQKGMILYKNKSLGKEIATEIFKSAISAQHTHHAIALYVTIIEMYIHGKEYANQIIKNNHALSQALINEGFKIFKRKNQFSLSHMIAITGDFPIDHHVACADLHNSNISTNSRILYDFPAVRIGVQEVTRKGMKEKDMVQLAKFFKEIILDRKNISSKIKEFNNKFNSIEYSLDEIYEKLF"}},
  "system": "E. coli RARE strain",
  "assay": "CAR-TTA coupled production in aerobically growing E. coli RARE",
  "type": "cell-based, Escherichia coli",
  "settings": "coupled to NiCAR, 2 mM acid, HPLC after 20 h",
  "procedure": "For the CAR-TTA coupled assay, the strains transformed with a plasmid expressing a TTA and a second plasmid expressing a CAR were grown under identical conditions with the addition of 34 μg/mL chloramphenicol (Cm) to maintain the additional plasmid. Further, 0.2 nM aTc and 1 mM IPTG were added to induce protein expression and 2 mM aldehyde, or acid was added at the time of induction. Following induction, the cultures were grown for 20 h at 30° C. while shaking at 1000 RPM with product concentrations measured via supernatant sampling and submission to HPLC.\nFinally, to partially address the toxicity of supplemented aldehydes in fermentative contexts, we investigated whether we could couple a TTA to a carboxylic acid reductase (CAR) to create a steady and low-level supply of aldehydes biosynthesized from carboxylic acid precursors. […]\nWith the promise of the CAR-TTA coupling, we wanted to investigate the generalizability of this pathway to produce a β-OH-nsAA that has a bio-orthogonal conjugation handle. […] Finally, given the potential to produce novel peptide or protein products in cells, we wanted to confirm the activity of this cascade in growing cells, which was successful for all CAR-TTA pairings with MavCAR producing the highest titer determined by product peak area after 20 h (FIG. 20d). […]",
  "data": [
    {"molecule": "B1", "values": [
      {"measurement": "β-OH-nsAA production from 4-formyl benzoic acid", "result": "observed a peak corresponding to the β-OH-nsAA"}
    ]}
  ]
}
